Measured values from US20240016923A1.

Columns and labels:
[1] = molecular target: secreted E2 ectodomain (sE2), HCV E2 residues 384-661 (Hepatitis C virus, isolate H77C) (UniProt P27958); assay: SPR (Biacore T200); sE2 amine-coupled to a CM5 chip, CD81-LEL injected; 1:1 model
[2] = molecular target: secreted E2 ectodomain (sE2), HCV E2 residues 384-661 (Hepatitis C virus, isolate H77C) (UniProt P27958); assay: SPR (Biacore T200); sE2 amine-coupled to a CM5 chip, CD81-LEL injected; 1:1 model, Kd = koff/kon

B1: CD81 large extracellular loop (CD81-LEL) (receptor, UniProt P60033 113-201, looked up, not shown: small tags and cut ends)
chain: FVNKDQIAKDVKQFYDQALQQAVVDDDANNAKAVVKTFHETLDCCGSSTLTALTTSVLKNNLCPSGSNIISNLFKEDCHQKIDDLFSGK
[1]
  koff: 0.00045 s⁻¹
  kon: 65000 M⁻¹ s⁻¹
[2]
  Kd: 7 nM
